± gives the standard deviation.
Experiment: protein stability index of a GFP-peptide fusion (GPS, HEK-293T) (PSI 1-6); higher = more stable
Details: c terminus: a fixed tail appended
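Further: 24-mer peptide tiles fused after GFP, lentivirally expressed, FACS-sorted into six equal bins by GFP/DsRed ratio, decoded by Illumina sequencing, PSI is the read-weighted mean bin number.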

DCSFPGLPRHQDQPHHQPPNRAGA [TRAF3IP2]
protein stability index (treatment: DMSO): 4.91 ± 0.062 | protein stability index (treatment: MLN4924 1 uM, 8 h): 5.03 ± 0.14

CSHNLCQACARNILVQTPESESPQ [TRIM9]
protein stability index (treatment: DMSO): 3.57 ± 0.33 | protein stability index (treatment: MLN4924 1 uM, 8 h): 3.85 ± 0.33

EKGEKGDRAGDASKDILLGPWDMV [SCARA5]
protein stability index (treatment: DMSO): 4.41 ± 0.37 | protein stability index (treatment: MLN4924 1 uM, 8 h): 4.71 ± 0.36

RATRAGAAEEPGVRGLLASLFAFK [C2CD2L]
protein stability index (treatment: DMSO): 3.1 ± 0.75 | protein stability index (treatment: MLN4924 1 uM, 8 h): 3.01 ± 0.57

SGSLITAGRIDREELCAQSARCVV [PCDHGA10]
protein stability index (treatment: DMSO): 3.22 ± 0.4 | protein stability index (treatment: MLN4924 1 uM, 8 h): 3.2 ± 0.29

IINTKKLSARDHQKLEREARICRL [CAMK2A]
protein stability index (treatment: DMSO): 3.19 ± 0.23 | protein stability index (treatment: MLN4924 1 uM, 8 h): 3.27 ± 0.25

IEKCTTPLSDDHDEKYGVPSLEEL [CRY1]
protein stability index (treatment: DMSO): 5.11 ± 0.25 | protein stability index (treatment: MLN4924 1 uM, 8 h): 5.14 ± 0.18

AYTHGCILHPELTVDSMIPAYATT [GDAP1]
protein stability index (treatment: DMSO): 2.65 ± 0.15 | protein stability index (treatment: MLN4924 1 uM, 8 h): 2.76 ± 0.063

PDFILKVVIDKHPVRFFVHKRPHV [CTDNEP1]
protein stability index (treatment: DMSO): 2.46 ± 0.56 | protein stability index (treatment: MLN4924 1 uM, 8 h): 2.44 ± 0.76

LSLGLATVDIQNPDITSSRYRGLP [WAS]
protein stability index (treatment: DMSO): 2.96 ± 0.25 | protein stability index (treatment: MLN4924 1 uM, 8 h): 3.12 ± 0.22

VDTLNVKDIAPEKQLLNSAVIAQQ [DLC1]
protein stability index (treatment: DMSO): 4.53 ± 0.36 | protein stability index (treatment: MLN4924 1 uM, 8 h): 4.55 ± 0.24

VAQGPTNQGLNVMVWNQNGKSPSI [ADAMTSL2]
protein stability index (treatment: DMSO): 3.11 ± 0.4 | protein stability index (treatment: MLN4924 1 uM, 8 h): 3.62 ± 0.23

DIRLTLMEEVLLLGLKDKEGYTSF [GOLPH3L]
protein stability index (treatment: DMSO): 2.26 ± 0.44 | protein stability index (treatment: MLN4924 1 uM, 8 h): 2.2 ± 0.55

SEMWDIFLVRLLMAMAVMLYYSNF [MFSD9]
protein stability index (treatment: DMSO): 3.25 ± 0.38 | protein stability index (treatment: MLN4924 1 uM, 8 h): 3.36 ± 0.33

SPMPYVKWMLGAEDLTPEDDMPIG [PTPRD]
protein stability index (treatment: DMSO): 4.3 ± 0.26 | protein stability index (treatment: MLN4924 1 uM, 8 h): 4.17 ± 0.48

RLKFPIDYPYSPPAFRFLTKMWHP [CDC34]
protein stability index (treatment: DMSO): 2.49 ± 0.48 | protein stability index (treatment: MLN4924 1 uM, 8 h): 2.09 ± 0.15

YADHNYGARPPPTPPASPPPSVLI [KMT2E]
protein stability index (treatment: DMSO): 3.06 ± 0.32 | protein stability index (treatment: MLN4924 1 uM, 8 h): 3.34 ± 0.4

KESSPSGSKSQRYSGAYGASVSDE [CHCHD3]
protein stability index (treatment: DMSO): 5.31 ± 0.5 | protein stability index (treatment: MLN4924 1 uM, 8 h): 4.99 ± 0.12

DTVFRFDPRYNKWMQVASLNEKRT [KLHL13]
protein stability index (treatment: DMSO): 2.87 ± 0.41 | protein stability index (treatment: MLN4924 1 uM, 8 h): 3.14 ± 0.41

FEQTPALTKHEWTEALGCDPPLSQ [ZNF8]
protein stability index (treatment: DMSO): 4.56 ± 0.26 | protein stability index (treatment: MLN4924 1 uM, 8 h): 4.6 ± 0.13

EGYILREDGKTCRRKDVCQAIDHG [MATN2]
protein stability index (treatment: DMSO): 4.31 ± 0.63 | protein stability index (treatment: MLN4924 1 uM, 8 h): 4.44 ± 0.22

LEPPEEEIIEGNTKSHIMLVQRQM [NECAB1]
protein stability index (treatment: DMSO): 4.64 ± 0.16 | protein stability index (treatment: MLN4924 1 uM, 8 h): 4.8 ± 0.24

PQDSGTAAWKGRVLLPETQKRQQL [C22orf31]
protein stability index (treatment: DMSO): 4.44 ± 0.17 | protein stability index (treatment: MLN4924 1 uM, 8 h): 4.27 ± 0.29

INQSFTGAERKAALCELLEKETQI [IQUB]
protein stability index (treatment: DMSO): 4.38 ± 0.23 | protein stability index (treatment: MLN4924 1 uM, 8 h): 4.01 ± 0.19

MCEQCDVFYCDPCRLRCHPPRGPL [TRIM9]
protein stability index (treatment: DMSO): 2.8 ± 0.32 | protein stability index (treatment: MLN4924 1 uM, 8 h): 2.72 ± 0.35

RTYGEPESAGPSRAVRQSVTSFPD [EMD]
protein stability index (treatment: DMSO): 4.92 ± 0.24 | protein stability index (treatment: MLN4924 1 uM, 8 h): 4.94 ± 0.14

LPTTKMAQTNPTPGSLGPWKITIY [CRYBA1]
protein stability index (treatment: DMSO): 2.71 ± 0.48 | protein stability index (treatment: MLN4924 1 uM, 8 h): 2.19 ± 0.49

KYEAQNIVNSTEESDDAFDTVTIP [IQUB]
protein stability index (treatment: DMSO): 5.27 ± 0.22 | protein stability index (treatment: MLN4924 1 uM, 8 h): 5.09 ± 0.45

AYIATQGPLAETTEDFWRMLWEHN [PTPRD]
protein stability index (treatment: DMSO): 2.79 ± 0.46 | protein stability index (treatment: MLN4924 1 uM, 8 h): 2.8 ± 0.37

LEFKLKSNDNEERLQVVKLLAKMF [PDS5B]
protein stability index (treatment: DMSO): 2.12 ± 0.38 | protein stability index (treatment: MLN4924 1 uM, 8 h): 2.29 ± 0.28

SIDLGTAHSAAVTASGDCYTFGSN [NEK8]
protein stability index (treatment: DMSO): 3.79 ± 0.31 | protein stability index (treatment: MLN4924 1 uM, 8 h): 4.06 ± 0.35

DAFVKIVRHEGTRTLWSGLPATLV [SLC25A39]
protein stability index (treatment: DMSO): 2.6 ± 0.61 | protein stability index (treatment: MLN4924 1 uM, 8 h): 2.03 ± 0.22

NQHGIILKYIGMAKREINKLLKQK [ARL6IP1]
protein stability index (treatment: DMSO): 1.93 ± 0.39 | protein stability index (treatment: MLN4924 1 uM, 8 h): 2.16 ± 0.32

DDDAEEEGPKRELGVRRPGGAGKE [TCF25]
protein stability index (treatment: DMSO): 5.58 ± 0.2 | protein stability index (treatment: MLN4924 1 uM, 8 h): 5.66 ± 0.15

APAKYTVFDAEGYVKPQSCIDIVI [MOSPD3]
protein stability index (treatment: DMSO): 2.83 ± 0.84 | protein stability index (treatment: MLN4924 1 uM, 8 h): 2.5 ± 1.3

AVTKDFKLTDKHETVVSYLPLSHI [ACSBG2]
protein stability index (treatment: DMSO): 2.98 ± 0.075 | protein stability index (treatment: MLN4924 1 uM, 8 h): 3.08 ± 0.64

CLEGSINEHSAHCPHTPEFSVTGG [RPAIN]
protein stability index (treatment: DMSO): 4.2 ± 0.41 | protein stability index (treatment: MLN4924 1 uM, 8 h): 4.07 ± 0.21

KPIHTTILNPHVHVIGEDAACIAY [CAMK2B]
protein stability index (treatment: DMSO): 2.77 ± 0.26 | protein stability index (treatment: MLN4924 1 uM, 8 h): 2.98 ± 0.18

FKDSAGKSPTGLKLKNDTENHQPV [ZNF75A]
protein stability index (treatment: DMSO): 4.88 ± 0.22 | protein stability index (treatment: MLN4924 1 uM, 8 h): 5.03 ± 0.18

AVGKMGFVVTMLKLIQKKLLDKTC [ZER1]
protein stability index (treatment: DMSO): 2.29 ± 0.64 | protein stability index (treatment: MLN4924 1 uM, 8 h): 2.35 ± 0.8

NTKRAIHTLAVMNDRLYAIGGNHL [KLHL14]
protein stability index (treatment: DMSO): 2.2 ± 0.19 | protein stability index (treatment: MLN4924 1 uM, 8 h): 2.3 ± 0.14

MQERVQRLEAARLSLEEELSRVKA [LRRC45]
protein stability index (treatment: DMSO): 4.25 ± 0.5 | protein stability index (treatment: MLN4924 1 uM, 8 h): 4.48 ± 0.27

EDTQTDADSSAQAAAQAPENFQEG [TAF7L]
protein stability index (treatment: DMSO): 5.47 ± 0.52 | protein stability index (treatment: MLN4924 1 uM, 8 h): 5.57 ± 0.42

NKTWREQYLRLPDAPEQRLRVMTT [ELOA2]
protein stability index (treatment: DMSO): 3.26 ± 0.31 | protein stability index (treatment: MLN4924 1 uM, 8 h): 3.19 ± 0.48

LLFSGGLSESETGPMEEVERQVLP [PBXIP1]
protein stability index (treatment: DMSO): 4.06 ± 0.27 | protein stability index (treatment: MLN4924 1 uM, 8 h): 4.18 ± 0.38

ANAHTYHINSISVNSDYETYMSAD [PPP2R2B]
protein stability index (treatment: DMSO): 3.81 ± 0.24 | protein stability index (treatment: MLN4924 1 uM, 8 h): 3.8 ± 0.22

PPTRGPPPSYGGSSRYDDYSSSRD [RBMX]
protein stability index (treatment: DMSO): 5.05 ± 0.23 | protein stability index (treatment: MLN4924 1 uM, 8 h): 4.93 ± 0.19

FEDAKEKMREFTKTIKRPFGVKYN [TPH1]
protein stability index (treatment: DMSO): 2.9 ± 0.21 | protein stability index (treatment: MLN4924 1 uM, 8 h): 3.1 ± 0.26

NRIKGCHDHLTLSVSRPEGRSWPS [PDLIM4]
protein stability index (treatment: DMSO): 2.87 ± 0.25 | protein stability index (treatment: MLN4924 1 uM, 8 h): 3.02 ± 0.18

PLRAVHINLEEKEKQIRSFLIEGP [PLEKHN1]
protein stability index (treatment: DMSO): 3.7 ± 0.31 | protein stability index (treatment: MLN4924 1 uM, 8 h): 3.8 ± 0.2

TKKKKKTIVTDVFQGSMRIFTKKL [USP39]
protein stability index (treatment: DMSO): 2.49 ± 0.26 | protein stability index (treatment: MLN4924 1 uM, 8 h): 2.83 ± 0.11

GDSASEEKSGSAEPFVLPASSVES [FBXO34]
protein stability index (treatment: DMSO): 5.39 ± 0.33 | protein stability index (treatment: MLN4924 1 uM, 8 h): 5.42 ± 0.42

FVHELHLSRLQRVKFCLLGALLAP [LPCAT4]
protein stability index (treatment: DMSO): 2.41 ± 0.71 | protein stability index (treatment: MLN4924 1 uM, 8 h): 2.06 ± 0.34

IVGSQGAEGALEEVPLEVLRQRES [TBC1D10A]
protein stability index (treatment: DMSO): 5.17 ± 0.34 | protein stability index (treatment: MLN4924 1 uM, 8 h): 5.31 ± 0.26

TDNQVRLRKRKEIREDRDRARLDS [DLC1]
protein stability index (treatment: DMSO): 5.18 ± 0.39 | protein stability index (treatment: MLN4924 1 uM, 8 h): 5.07 ± 0.3

LQNFSSSWSDGMAFCALVHSFFPD [SMTNL2]
protein stability index (treatment: DMSO): 2.6 ± 0.39 | protein stability index (treatment: MLN4924 1 uM, 8 h): 2.42 ± 0.44

QRPFIRMSWEKEEGKSRHVDFQCV [BTBD10]
protein stability index (treatment: DMSO): 2.95 ± 0.24 | protein stability index (treatment: MLN4924 1 uM, 8 h): 3.04 ± 0.37

EEEEEGRFYYSEDDHGDECSYTDL [KCNA4]
protein stability index (treatment: DMSO): 5.4 ± 0.12 | protein stability index (treatment: MLN4924 1 uM, 8 h): 5.33 ± 0.2

RCCGAASYQDWQQNLYFNCSSPGV [TSPAN10]
protein stability index (treatment: DMSO): 2.37 ± 0.42 | protein stability index (treatment: MLN4924 1 uM, 8 h): 2.33 ± 0.66

VGTAAVNMCLVATGGADAYYEMGI [IMPA1]
protein stability index (treatment: DMSO): 2.71 ± 0.045 | protein stability index (treatment: MLN4924 1 uM, 8 h): 2.73 ± 1.1

EEQALTKAAEGGLSSPEFSELCIW [FAM98B]
protein stability index (treatment: DMSO): 3.72 ± 0.052 | protein stability index (treatment: MLN4924 1 uM, 8 h): 3.65 ± 0.11

SLIGKGSFGQVVKAYDHQTQELVA [DYRK1B]
protein stability index (treatment: DMSO): 3.56 ± 0.26 | protein stability index (treatment: MLN4924 1 uM, 8 h): 3.59 ± 0.43

EYVLLKALALANSDSVHIEDAEAV [ESRRA]
protein stability index (treatment: DMSO): 3.36 ± 0.33 | protein stability index (treatment: MLN4924 1 uM, 8 h): 3.55 ± 0.37

DHQTLLSAAHEVELQRQKEAEKLE [NOP53]
protein stability index (treatment: DMSO): 5.46 ± 0.15 | protein stability index (treatment: MLN4924 1 uM, 8 h): 5.42 ± 0.38

LLFCCQCVDVVFYNPDLKKVVEAH [RHOBTB3]
protein stability index (treatment: DMSO): 2.4 ± 0.14 | protein stability index (treatment: MLN4924 1 uM, 8 h): 3.01 ± 0.52

Reference: the supplement of paper PMC10567573
